Changes are numbered by the printed parent chain.
B1: MSM-R607 IgG1 (antibody, V domains shown)
VH: EVQLLESGGGLVQPGGSLRLSCAASGFTFSSYYMHWVRQAPGKGLEWVSLIAPANSDTYYADSVKGRFTISRDNSKNTLYLQMNSLRAEDTAVYYCARSSYTRHSSKRGMDYWGQGTLVTVSS
VL: EIVLTQSPGTLSLSPGERATLSCRASQSVSSSYLAWYQQKPGQAPRLLIYGASSRATGIPDRFSGSGSGTDFTLTISRLEPEDFAVYYCQQAAYSPITFGQGTKVEIKR
notes: Fully human IgG1
B2: MSM-R606 IgG1 (antibody)
heavy: not shown
light: EIVLTQSPGTLSLSPGERATLSCRASQSVSSSYLAWYQQKPGQAPRLLIYGASSRATGIPDRFSGSGSGTDFTLTISRLEPEDFAVYYCQQSSYSPITFGQGTKVEIKRTVAAPSVFIFPPSDEQLKSGTASVVCLLNNFYPREAKVQWKVDNALQSGNSQESVTEQDSKDSTYSLSSTLTLSKADYEKHKVYACEVTHQGLSSPVTKSFNRGEC
notes: Fully human IgG1
B3: MSM-R627/33 (antibody, V domains shown)
VH: EVQLLESGGGLVQPGGSLRLSCAASGFTISSYMAWVRQAPGKGLEWVSSISPSSGSTYYADSVKGRFTISRDNSKNTLYLQMNSLRAEDTAVYYCARSMWSKQMHRYGLDYWGQGTLVTVSS
VL: EIVLTQSPGTLSLSPGERATLSCRASQSVSSSYLAWYQQKPGQAPRLLIYGASSRATDIPDRFSGSGSGTDFTLTISRLEPEDFAVYYCQQSYSDPITFGQGTKVEIK
notes: also called MSM 627 HC/JSJ R633LC
B4: MSM-R621 IgG1 (antibody, V domains shown)
VH: EVQLLESGGGLVQPGGSLRLSCAASGFTFTTYYMHWVRQAPGKGLEWVSGIGPRGSWTGYADSVKGRFTISRDNSKNTLYLQMNSLRAEDTAVYYCARGRALVSNYSGLDYWGQGTLVTVSS
VL: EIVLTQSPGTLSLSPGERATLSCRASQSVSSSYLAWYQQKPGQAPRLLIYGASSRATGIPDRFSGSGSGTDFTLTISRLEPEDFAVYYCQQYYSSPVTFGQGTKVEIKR
notes: Fully human IgG1
B5: MSM-R625 (antibody, human IgG1, kappa, V domains shown)
VH: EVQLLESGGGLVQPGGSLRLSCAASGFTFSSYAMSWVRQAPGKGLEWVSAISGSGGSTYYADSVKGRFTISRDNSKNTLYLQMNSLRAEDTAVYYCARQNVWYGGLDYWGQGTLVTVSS
VL: B1 VL with A92Y, A93S, S95A
B6: MSM-R633 (antibody, V domains shown)
VH: EVQLLESGGGLVQPGGSLRLSCAASGFTFTSSYMAWVRQAPGKGLEWVSSIAPSSGSTYYADSVKGRFTISRDNSKNTLYLQMNSLRAEDTAVYYCARSRWEWYYHSSHGLDYWGQGTLVTVSS
VL: B3 VL
B7: MSM-R615 IgG1 (antibody, V domains shown)
VH: EVQLLESGGGLVQPGGSLRLSCAASGFTFSSYYMHWVRQTPGKGLEWVSIISPWSSSTYYADSVKGRFTISRDNSKNTLYLQMNSLRAEDTAVYYCARSSYSWGESYKRAIDYWGQGTLVTVSS
VL: B1 VL with P15H, A92S, A93Y, I97V
notes: Fully human IgG1
B8: MSM-R610 IgG1 (antibody, V domains shown)
VH: EVQLLESGGGLVQPGGSLRLSCAASGFTFTGSSMSWVRQAPGKGLEWVSLISSRGSYTYYADSVKGRFTISRDNSKNTLYLQMNSLRAEDTAVYYCARSYAYQYRGLDYWGQGTLVTVSS
VL: B1 VL with A92N, A93R, Y94T
notes: Fully human IgG1; also called MSM R610.46
B9: MSM-R604 IgG1 (antibody, V domains shown)
VH: EVQLLESGGGLVQPGGSLRLSCAASGFTFTNYSMHWVRQAPGKGLEWVSLISPYSSSTYYADSMKGRFTISRDNSKNTLYLQMNSLRAEDTAVYYCARGRYYGAYSYPGFDYWGQGTLVTVSS
VL: B1 VL with A92S, Y94K, S95N, I97L
notes: Fully human IgG1
B10: MSM-R619 IgG1 (antibody, V domains shown)
VH: EVQLLESGGGLVQPGGSLRLSCAASGFTFSNYYIHWVRQAPGKGLEWVSLISPGGSTTYYADSVKGRFTISRDNSKNTLYLQMNSLRAEDTAVYYCARGRTWWSTYYSGIDYWGQGTLVTVSS
VL: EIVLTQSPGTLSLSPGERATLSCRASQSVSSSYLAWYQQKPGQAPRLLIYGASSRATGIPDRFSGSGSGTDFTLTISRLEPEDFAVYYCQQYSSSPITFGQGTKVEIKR
notes: Fully human IgG1; also called MSM R19
B11: MSM-R609 IgG1 (antibody, V domains shown)
VH: EVQLLESGGGLVQPGGSLRLSCAASGFTFTASYMSWVRQAPGKGLEWVSNISPKYGNTYYADSVKGRFTISRDNSKNTLYLQMNSLRAEDTAVYYCARSIRSAKYSYYGIDYWGQGTLVTVSS
VL: B1 VL with A92S, Y94S, S95A, I97V
notes: Fully human IgG1
B12: MSM-R622 IgG1 (antibody, V domains shown)
VH: B8 VH with T30S, G31K, S32N, S52T, R54Y, G55S, S56G
VL: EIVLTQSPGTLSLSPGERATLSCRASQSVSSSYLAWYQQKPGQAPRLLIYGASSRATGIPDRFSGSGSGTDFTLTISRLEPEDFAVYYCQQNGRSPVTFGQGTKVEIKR
notes: Fully human IgG1; also called MSM R622.46
B13: MSM-R617 IgG1 (antibody, V domains shown)
VH: B8 VH with T30S, S32Y, S33A, S35H, L50S, S52G, G55R, S56G, Y57F, Y59S
VL: EIVLTQSPGTLSLSPGERATLSCRASQSVSSSYLAWYQQKPGQAPRLLIYGASSRATGIPDRFSGSGSGTDFTLTISRLEPEDFAVYYCQQRSSVTFGQGTKVEIKR
notes: Fully human IgG1; also called MSMR617.46
B14: MSM-R608 IgG1 (antibody)
heavy: not shown
light: B2 light with S93Y, S95A, I97V
notes: Fully human IgG1
B15: MSM-R612 IgG1 (antibody, V domains shown)
VH: EVQLLGSGGGLVQPGGSLRLSCAASGFTFTTYYMHWVRQAPGKGLEWVSLISPNAGNTYYADSVKGRFTISRDNSKNTLYLQMNSLRAEDTAVYYCARGRSRAGTSGMDYWGQGTLVTVSS
VL: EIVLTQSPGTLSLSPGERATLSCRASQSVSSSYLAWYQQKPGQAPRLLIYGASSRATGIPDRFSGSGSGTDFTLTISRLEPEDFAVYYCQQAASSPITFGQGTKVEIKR
notes: Fully human IgG1

molecular target: T1, human chemokine receptor CCR6 (human, UniProt P51684 1-374); assay: cell-based or functional assay
T1 sequence (looked up): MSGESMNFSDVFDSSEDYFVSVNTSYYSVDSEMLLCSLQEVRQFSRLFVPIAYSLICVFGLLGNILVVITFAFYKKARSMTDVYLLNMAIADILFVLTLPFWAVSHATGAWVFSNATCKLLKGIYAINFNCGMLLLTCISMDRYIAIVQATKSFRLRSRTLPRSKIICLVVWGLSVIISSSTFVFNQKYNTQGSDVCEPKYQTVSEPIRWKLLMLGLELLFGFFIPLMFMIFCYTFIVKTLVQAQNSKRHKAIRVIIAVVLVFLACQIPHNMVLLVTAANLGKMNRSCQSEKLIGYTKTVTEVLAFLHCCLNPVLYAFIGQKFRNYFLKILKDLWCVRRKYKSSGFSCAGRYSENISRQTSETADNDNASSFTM

In order of rising “IC50, nM CCL20-Ca-Flux” value:
1. B2  8.3 nM
2. B1  13.5 nM

molecular target: T1, human chemokine receptor CCR6; assay: cell-based or functional assay; remark: another data set of the same source

In order of rising “Ca-Flux IC50, nM CCR6/CCL20” value:
1. B2  8.3 nM
2. B1  13.5 nM

molecular target: T1, human chemokine receptor CCR6; assay: cell-based or functional assay; remark: another data set of the same source

In the case of B3, the “IC50, nM (Ca-Flux) CCR6/CCL20” value is reported as > 500 nM.

molecular target: T2, human CXCR6 (human, UniProt O00574 1-342); assay: flow cytometry on GPCR-expressing cell panel
T2 construct: whole, on cells
T2 sequence (O00574 whole entry): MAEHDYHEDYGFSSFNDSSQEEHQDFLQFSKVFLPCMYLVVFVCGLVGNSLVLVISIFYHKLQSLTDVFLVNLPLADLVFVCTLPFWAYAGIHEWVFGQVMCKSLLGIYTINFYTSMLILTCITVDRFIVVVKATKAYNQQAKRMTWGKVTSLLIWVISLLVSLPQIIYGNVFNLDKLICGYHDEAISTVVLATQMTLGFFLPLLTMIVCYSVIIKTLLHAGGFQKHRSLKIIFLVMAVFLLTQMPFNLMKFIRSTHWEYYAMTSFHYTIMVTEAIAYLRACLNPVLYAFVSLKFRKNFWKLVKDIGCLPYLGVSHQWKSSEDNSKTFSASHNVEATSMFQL

B1: binds.
B4: binds.

molecular target: T3, mouse CCR6 (mouse, UniProt O54689 1-367); assay: flow cytometry on cells expressing mouse CCR6
T3 construct: whole, on cells; gene derived from a cDNA library; also called CCR6 mouse
T3 sequence (looked up): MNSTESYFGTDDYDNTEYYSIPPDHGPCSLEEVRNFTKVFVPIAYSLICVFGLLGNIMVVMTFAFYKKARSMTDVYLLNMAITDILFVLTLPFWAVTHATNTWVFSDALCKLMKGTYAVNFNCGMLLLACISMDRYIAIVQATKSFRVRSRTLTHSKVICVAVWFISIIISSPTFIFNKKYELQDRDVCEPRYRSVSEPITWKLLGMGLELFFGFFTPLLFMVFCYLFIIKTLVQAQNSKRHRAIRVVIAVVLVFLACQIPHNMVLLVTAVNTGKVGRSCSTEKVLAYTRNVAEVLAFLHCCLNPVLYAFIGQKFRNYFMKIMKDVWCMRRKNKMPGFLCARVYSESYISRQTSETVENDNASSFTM

B5: no binding.
B6: no binding.

molecular target: T3, mouse CCR6; assay: flow cytometry on CHO cells expressing mouse CCR6

B7: no binding.
B8: no binding.
B9: no binding.
B10: no binding.

molecular target: T1, human chemokine receptor CCR6; assay: flow cytometry on cells expressing the target, antibody titration

In order of falling EC50:
1. B6  7 nM
2. B3  2.6 nM
3. B5  1.6 nM

molecular target: T4, cynomolgus monkey CCR6 (cynomolgus monkey (Macaca Fascicularis)); assay: as above
T4 construct: whole, on cells; gene derived from a total RNA library; also called CCR6 cyno; cyno CCR6

In order of falling EC50:
1. B6  7.5 nM
2. B3  2.9 nM
3. B5  2.6 nM

molecular target: T1, human chemokine receptor CCR6; assay: flow cytometry on cells expressing the target, IgG1 titration, anti-human Fc-PE

First: B1
Second: B8
The EC50 of the first is lower: 1.2 nM for the first, > 100 nM for the second.

Compared with B9, B11 is 2.9-fold lower in EC50: 2.9 nM for the first, 1 nM for the second.

B12 and B13 are within 1.5-fold of each other in EC50: 1.9 nM for the first, 1.5 nM for the second.

B4 and B10 are within 1.5-fold of each other in EC50: 1.5 nM for the first, 1.7 nM for the second.

B2 and B14 are within 1.5-fold of each other in EC50: 1.4 nM for the first, 2 nM for the second.

For B15, the EC50 was 1 nM.

molecular target: T4, cynomolgus monkey CCR6; assay: as above

B1 and B7 are within 1.5-fold of each other in EC50: 2 nM for the first, 2.5 nM for the second.

Going from B8 to B9, the EC50 falls from > 100 nM to 1.5 nM. The second is the more potent here.

B11 and B13 are within 1.5-fold of each other in EC50: 1.6 nM for the first, 1.9 nM for the second.

B4 and B10 are within 1.5-fold of each other in EC50: 2.2 nM for the first, 2 nM for the second.

B2 and B14 are within 1.5-fold of each other in EC50: 1.7 nM for the first, 2.5 nM for the second.

For B15, the EC50 was 1.6 nM.

molecular target: T3, mouse CCR6; assay: as above

In order of rising EC50:
1. B2  0.7 nM
2. B1  1 nM
3. B14  1 nM
4. B15  1.5 nM
5. B4  30 nM

molecular target: T1, human chemokine receptor CCR6; assay: flow cytometry on cells expressing the target, IgG1 titration (repeat of Table 2)

B1 and B7 are within 1.5-fold of each other in EC50: 1.2 nM for the first, 1 nM for the second.

Going from B8 to B9, the EC50 falls from > 100 nM to 2.9 nM. The second is the more potent here.

First: B11
Second: B12
The EC50 of the first is 1.9-fold lower: 1 nM for the first, 1.9 nM for the second. The first is the more potent here.

B13 and B4 are the same in EC50: 1.5 nM for the first, 1.5 nM for the second.

B10 and B2 are within 1.5-fold of each other in EC50: 1.7 nM for the first, 1.4 nM for the second.

First: B14
Second: B15
The EC50 of the first is 2-fold higher: 2 nM for the first, 1 nM for the second.

molecular target: T4, cynomolgus monkey CCR6; assay: as above

B1 and B7 are within 1.5-fold of each other in EC50: 2 nM for the first, 2.5 nM for the second.

First: B8
Second: B9
The EC50 of the first is higher: > 100 nM for the first, 1.5 nM for the second.

B11 and B13 are within 1.5-fold of each other in EC50: 1.6 nM for the first, 1.9 nM for the second.

B4 and B10 are within 1.5-fold of each other in EC50: 2.2 nM for the first, 2 nM for the second.

B2 and B14 are within 1.5-fold of each other in EC50: 1.7 nM for the first, 2.5 nM for the second.

With B15 the EC50 was 1.6 nM.

molecular target: T3, mouse CCR6; assay: as above

In order of rising EC50:
1. B2  0.7 nM
2. B1  1 nM
3. B14  1 nM
4. B15  1.5 nM
5. B4  30 nM

molecular target: T1, human chemokine receptor CCR6; assay: flow cytometry on R1610 cells expressing human CCR6, IgG1 titration, anti-human Fc-PE

With B7 the EC50 was 1 nM.

— patent US20150337037A1 (MSM PROTEIN TECHNOLOGIES, published 2015)
